Source: PMC5473807, “Distribution and kinetics of the Kv1.3-blocking peptide HsTX1[R14A] in experimental rats” (Scientific Reports, 2017)
Read-outs that look alike come from different tables or passages of the source.

Experiment: In vivo biodistribution by organ and tissue extraction
Set-up: species or system male Wistar rats
Conditions: male, Wistar, total radioactivity, rat; for SUV at 48 h / tissue uptake dose at 48 h: 2880 min p.i.; for SUV at 1 h / tissue uptake dose at 1 h: 60 min p.i.; for tissue uptake dose at 5 min / SUV at 5 min: 5 min p.i.; for dose excreted at 24 h: kidney and urine, read-out: renal elimination
Method: The present study includes data obtained from a total of 50 animals. Four animals (body weight 227 ± 10 g) for each time point were injected intravenously into a tail vein or subcutaneously with approximately 0.3 MBq ([…]) [^64Cu]Cu-NOTA-HsTX1[R14A] conjugate in 0.5 mL electrolyte solution E-153 (Serumwerk Bernburg, Germany). Animals were euthanised at 5, 60, 240, 1440 and 2880 min post-injection. Blood and the major organs were collected, weighed, and counted in a cross-calibrated γ-counter (Isomed 1000, Isomed GmbH, Dresden) and Wallac WIZARD Automatic Gamma Counter (PerkinElmer, Germany). The radioactivity of the tissue samples was decay-corrected and calibrated by comparing the counts in tissue with the counts in aliquots of the injected radiotracer that had been measured in the γ-counter at the same time. The activity in the selected organs was expressed as percent-injected dose per organ (% ID) and the activity concentration in tissues and organs as standardised uptake value (SUV). Values are quoted as mean ± standard error of mean (SEM) for each group of four animals.

[1] = femur, sc, 0.3 MBq, s.c., mean ± SD, n=4, read-out: Femur SUV
[2] = femur, sc, 0.3 MBq, s.c., mean ± SD, n=4, read-out: Femur activity amount
[3] = heart, iv, 0.3 MBq, i.v., mean ± SD, n=4, read-out: Heart activity amount
[4] = heart, iv, i.v., mean ± SD, n=4, read-out: Heart SUV
[5] = heart, sc, 0.3 MBq, s.c., mean ± SD, n=4, read-out: Heart activity amount
[6] = heart, sc, s.c., mean ± SD, n=4, read-out: Heart SUV
[7] = intestine, iv, 0.3 MBq, i.v., mean ± SD, n=4, read-out: Intestine activity amount
[8] = intestine, sc, 0.3 MBq, s.c., mean ± SD, n=4, read-out: Intestine activity amount
[9] = kidneys, iv, 0.3 MBq, i.v., mean ± SD, n=4, read-out: Kidneys SUV
[10] = kidneys, iv, 0.3 MBq, i.v., mean ± SD, n=4, read-out: Kidneys activity amount
[11] = kidneys, sc, 0.3 MBq, s.c., mean ± SD, n=4, read-out: Kidneys SUV
[12] = kidneys, sc, 0.3 MBq, s.c., mean ± SD, n=4, read-out: Kidneys activity amount
[13] = liver, iv, 0.3 MBq, i.v., mean ± SD, n=4, read-out: Liver SUV
[14] = liver, iv, 0.3 MBq, i.v., mean ± SD, n=4, read-out: Liver activity amount
[15] = liver, sc, 0.3 MBq, s.c., mean ± SD, n=4, read-out: Liver SUV

`CSCC[C@@H]1NC(=O)[C@@H]2CSSC[C@H](NC(=O)[C@H](CO)NC(=O)[C@H](C)NC(=O)COCCOCCNC(=O)CN3CCN(CC(=O)O)CCN(CC(=O)O)CC3)C(=O)N[C@@H](CCCNC(=N)N)C(=O)N[C@@H]([C@@H](C)O)C(=O)N3CCC[C@H]3C(=O)N[C@@H](CCCCN)C(=O)N[C@@H](CC(=O)O)C(=O)N[C@H]3CSSC[C@H](NC(=O)[C@H](CCCCN)NC(=O)[C@H](CCCNC(=N)N)NC(=O)[C@H](CC(N)=O)NC1=O)C(=O)N[C@@H](CCCCN)C(=O)N[C@H]1CSSC[C@H](NC(=O)[C@@H]4CCCN4C(=O)[C@H](CC(=O)O)NC(=O)[C@H](C)NC3=O)C(=O)N[C@@H](C)C(=O)N[C@@H](CCCCN)C(=O)N[C@@H](CCC(=O)O)C(=O)N[C@@H]([C@@H](C)O)C(=O)NCC(=O)N[C@@H](CSSC[C@@H](C(N)=O)NC(=O)[C@H](CCCNC(=N)N)NC(=O)[C@H](CC(N)=O)NC1=O)C(=O)N1CCC[C@H]1C(=O)N[C@@H](Cc1ccc(O)cc1)C(=O)NCC(=O)N[C@@H](CCCCN)C(=O)N2` [[^64Cu]Cu-NOTA-HsTX1[R14A], metal not drawn] showed an SUV at 48 h (femur, iv, 0.3 MBq, i.v., mean ± SD, n=4, read-out: Femur SUV) of 0.39 ± 0.02 SUV, a tissue uptake dose at 48 h (femur, iv, 0.3 MBq, i.v., mean ± SD, n=4, read-out: Femur activity amount) of 0.23 ± 0.01 %ID and an SUV at 1 h [1] of 1.25 ± 0.07 SUV. For the same molecule, the tissue uptake dose at 1 h [2] was 0.82 ± 0.04 %ID, the SUV at 4 h (femur, sc, 0.3 MBq, s.c., 240 min p.i., mean ± SD, n=4, read-out: Femur SUV) was 0.92 ± 0.08 SUV and the tissue uptake dose at 4 h (femur, sc, 0.3 MBq, s.c., 240 min p.i., mean ± SD, n=4, read-out: Femur activity amount) was 0.64 ± 0.02 %ID. For the same molecule, the SUV at 24 h (femur, sc, 0.3 MBq, s.c., 1440 min p.i., mean ± SD, n=4, read-out: Femur SUV) was 0.47 ± 0.02 SUV, the tissue uptake dose at 24 h (femur, sc, 0.3 MBq, s.c., 1440 min p.i., mean ± SD, n=4, read-out: Femur activity amount) was 0.34 ± 0.01 %ID and the SUV at 48 h [1] was 0.34 ± 0.02 SUV. For the same molecule, the tissue uptake dose at 48 h [2] was 0.19 ± 0.02 %ID, the tissue uptake dose at 5 min [3] was 0.33 ± 0.04 %ID and the tissue uptake dose at 1 h (heart, iv, 0.3 MBq, i.v., mean ± SD, n=8, read-out: Heart activity amount) was 0.21 ± 0.06 %ID. It also gave a tissue uptake dose at 4 h (heart, iv, 0.3 MBq, i.v., 240 min p.i., mean ± SD, n=4, read-out: Heart activity amount) of 0.19 ± 0.03 %ID, a tissue uptake dose at 24 h (heart, iv, 0.3 MBq, i.v., 1440 min p.i., mean ± SD, n=8, read-out: Heart activity amount) of 0.23 ± 0.02 %ID and a tissue uptake dose at 48 h [3] of 0.27 ± 0.04 %ID. The SUV at 5 min [4] was 1.04 ± 0.14 SUV, the SUV at 1 h (heart, iv, i.v., mean ± SD, n=8, read-out: Heart SUV) was 0.53 ± 0.08 SUV and the SUV at 4 h (heart, iv, i.v., 240 min p.i., mean ± SD, n=4, read-out: Heart SUV) was 0.4 ± 0.07 SUV. The SUV at 24 h (heart, iv, i.v., 1440 min p.i., mean ± SD, n=8, read-out: Heart SUV) was 0.62 ± 0.07 SUV, the SUV at 48 h [4] was 0.64 ± 0.06 SUV and the tissue uptake dose at 1 h [5] was 0.32 ± 0.02 %ID. The tissue uptake dose at 4 h (heart, sc, 0.3 MBq, s.c., 240 min p.i., mean ± SD, n=4, read-out: Heart activity amount) was 0.18 ± 0.03 %ID, the tissue uptake dose at 24 h (heart, sc, 0.3 MBq, s.c., 1440 min p.i., mean ± SD, n=4, read-out: Heart activity amount) was 0.23 ± 0.01 %ID and the tissue uptake dose at 48 h [5] was 0.22 ± 0.01 %ID. The SUV at 1 h [6] was 0.7 ± 0.03 SUV, the SUV at 4 h (heart, sc, s.c., 240 min p.i., mean ± SD, n=4, read-out: Heart SUV) was 0.41 ± 0.06 SUV and the SUV at 24 h (heart, sc, s.c., 1440 min p.i., mean ± SD, n=4, read-out: Heart SUV) was 0.53 ± 0.02 SUV. It also gave an SUV at 48 h [6] of 0.57 ± 0.04 SUV, a tissue uptake dose at 5 min [7] of 3.59 ± 2.4 %ID and a tissue uptake dose at 1 h (intestine, iv, 0.3 MBq, i.v., mean ± SD, n=8, read-out: Intestine activity amount) of 5.3 ± 2.31 %ID. For the same molecule, the tissue uptake dose at 4 h (intestine, iv, 0.3 MBq, i.v., 240 min p.i., mean ± SD, n=4, read-out: Intestine activity amount) was 4.61 ± 1.84 %ID, the tissue uptake dose at 24 h (intestine, iv, 0.3 MBq, i.v., 1440 min p.i., mean ± SD, n=8, read-out: Intestine activity amount) was 16.5 ± 2.32 %ID and the tissue uptake dose at 48 h [7] was 8.27 ± 1.01 %ID. For the same molecule, the tissue uptake dose at 1 h [8] was 7.85 ± 3.82 %ID, the tissue uptake dose at 4 h (intestine, sc, 0.3 MBq, s.c., 240 min p.i., mean ± SD, n=4, read-out: Intestine activity amount) was 4.65 ± 1.73 %ID and the tissue uptake dose at 24 h (intestine, sc, 0.3 MBq, s.c., 1440 min p.i., mean ± SD, n=4, read-out: Intestine activity amount) was 19.3 ± 1.35 %ID. For the same molecule, the tissue uptake dose at 48 h [8] was 8.16 ± 1.02 %ID, the dose excreted at 24 h (iv, 0.3 MBq, i.v., one day after injection) was 48 ± 3% and the dose excreted at 24 h (sc, 0.3 MBq, s.c., one day after injection) was 51 ± 2%. It also gave an SUV at 5 min [9] of 35.1 ± 6.82 SUV, a tissue uptake dose at 5 min [10] of 23.9 ± 3.93 %ID and an SUV at 1 h (kidneys, iv, 0.3 MBq, i.v., mean ± SD, n=8, read-out: Kidneys SUV) of 78.4 ± 13.6 SUV. The tissue uptake dose at 1 h (kidneys, iv, 0.3 MBq, i.v., mean ± SD, n=8, read-out: Kidneys activity amount) was 61.6 ± 4.21 %ID, the SUV at 4 h (kidneys, iv, 0.3 MBq, i.v., 240 min p.i., mean ± SD, n=4, read-out: Kidneys SUV) was 68.4 ± 4.28 SUV and the tissue uptake dose at 4 h (kidneys, iv, 0.3 MBq, i.v., 240 min p.i., mean ± SD, n=4, read-out: Kidneys activity amount) was 63.1 ± 0.97 %ID. The SUV at 24 h (kidneys, iv, 0.3 MBq, i.v., 1440 min p.i., mean ± SD, n=8, read-out: Kidneys SUV) was 18 ± 5.32 SUV, the tissue uptake dose at 24 h (kidneys, iv, 0.3 MBq, i.v., 1440 min p.i., mean ± SD, n=8, read-out: Kidneys activity amount) was 14.2 ± 2.04 %ID and the SUV at 48 h [9] was 6.37 ± 0.59 SUV. It also gave a tissue uptake dose at 48 h [10] of 6.19 ± 0.49 %ID, an SUV at 1 h [11] of 58.1 ± 5.55 SUV and a tissue uptake dose at 1 h [12] of 53.3 ± 4.9 %ID. It also gave an SUV at 4 h (kidneys, sc, 0.3 MBq, s.c., 240 min p.i., mean ± SD, n=4, read-out: Kidneys SUV) of 70.2 ± 4.14 SUV, a tissue uptake dose at 4 h (kidneys, sc, 0.3 MBq, s.c., 240 min p.i., mean ± SD, n=4, read-out: Kidneys activity amount) of 62.5 ± 2.36 %ID and an SUV at 24 h (kidneys, sc, 0.3 MBq, s.c., 1440 min p.i., mean ± SD, n=4, read-out: Kidneys SUV) of 14.4 ± 1.32 SUV. For the same molecule, the tissue uptake dose at 24 h (kidneys, sc, 0.3 MBq, s.c., 1440 min p.i., mean ± SD, n=4, read-out: Kidneys activity amount) was 13.6 ± 1.1 %ID, the SUV at 48 h [11] was 5.98 ± 1.08 SUV and the tissue uptake dose at 48 h [12] was 4.95 ± 0.49 %ID. The tissue uptake dose at 4 h (liver and intestine, iv, 0.3 MBq, i.v., 4 h, read-out: activity in the liver and intestine) was 12 ± 3 %ID, the tissue uptake dose at 24 h (liver and intestine, iv, 0.3 MBq, i.v., one day after injection, read-out: hepatobiliary elimination, maximum) was 31 ± 3 %ID and the tissue uptake dose at 4 h (liver and intestine, sc, 0.3 MBq, s.c., 4 h, read-out: activity in the liver and intestine) was 11.4 ± 4 %ID. For the same molecule, the tissue uptake dose at 24 h (liver and intestine, sc, 0.3 MBq, s.c., one day after injection, read-out: hepatobiliary elimination, maximum) was 30 ± 3 %ID, the SUV at 5 min [13] was 1.02 ± 0.53 SUV and the tissue uptake dose at 5 min [14] was 4.6 ± 2.22 %ID. It also gave an SUV at 1 h (liver, iv, 0.3 MBq, i.v., mean ± SD, n=8, read-out: Liver SUV) of 1.24 ± 0.31 SUV, a tissue uptake dose at 1 h (liver, iv, 0.3 MBq, i.v., mean ± SD, n=8, read-out: Liver activity amount) of 5.43 ± 1.44 %ID and an SUV at 4 h (liver, iv, 0.3 MBq, i.v., 240 min p.i., mean ± SD, n=4, read-out: Liver SUV) of 1.78 ± 0.45 SUV. The tissue uptake dose at 4 h (liver, iv, 0.3 MBq, i.v., 240 min p.i., mean ± SD, n=4, read-out: Liver activity amount) was 7.01 ± 1.47 %ID, the SUV at 24 h (liver, iv, 0.3 MBq, i.v., 1440 min p.i., mean ± SD, n=8, read-out: Liver SUV) was 2.93 ± 0.78 SUV and the tissue uptake dose at 24 h (liver, iv, 0.3 MBq, i.v., 1440 min p.i., mean ± SD, n=8, read-out: Liver activity amount) was 14.8 ± 2.42 %ID. It also gave an SUV at 48 h [13] of 1.45 ± 0.13 SUV, a tissue uptake dose at 48 h [14] of 8.35 ± 0.95 %ID and an SUV at 1 h [15] of 1.13 ± 0.23 SUV. For the same molecule, the tissue uptake dose at 1 h (liver, sc, 0.3 MBq, s.c., mean ± SD, n=4, read-out: Liver activity amount) was 4.44 ± 0.74 %ID, the SUV at 4 h (liver, sc, 0.3 MBq, s.c., 240 min p.i., mean ± SD, n=4, read-out: Liver SUV) was 1.75 ± 0.63 SUV and the tissue uptake dose at 4 h (liver, sc, 0.3 MBq, s.c., 240 min p.i., mean ± SD, n=4, read-out: Liver activity amount) was 6.79 ± 2.27 %ID. The SUV at 24 h (liver, sc, 0.3 MBq, s.c., 1440 min p.i., mean ± SD, n=4, read-out: Liver SUV) was 2.23 ± 0.32 SUV, the tissue uptake dose at 24 h (liver, sc, 0.3 MBq, s.c., 1440 min p.i., mean ± SD, n=4, read-out: Liver activity amount) was 11.1 ± 1.82 %ID and the SUV at 48 h [15] was 1.4 ± 0.08 SUV.
